Measured values taken from publication PMC10397247.
Blank lines part the entries; values can stand above or below the binder they belong to.

How the values were obtained:
Experiment in all cases: two-hybrid library CCNG1;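 further: natural log of median RNA to DNA barcode read ratio; higher means stronger binding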
O15-bA = target: T1, O15-bA
T1 chain: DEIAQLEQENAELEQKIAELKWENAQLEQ

O16-bA = target: T2, O16-bA
T2 chain: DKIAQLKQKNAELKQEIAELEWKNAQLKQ

O2-bA = target: T3, O2-bA
T3 chain: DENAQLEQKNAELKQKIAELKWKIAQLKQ

O3-bA = target: T4, O3-bA
T4 chain: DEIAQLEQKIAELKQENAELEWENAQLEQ

O4-bA = target: T5, O4-bA
T5 chain: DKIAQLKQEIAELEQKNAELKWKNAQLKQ

O5-bA = target: T6, O5-bA
T6 chain: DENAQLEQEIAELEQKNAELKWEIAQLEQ

O6-bA = target: T7, O6-bA
T7 chain: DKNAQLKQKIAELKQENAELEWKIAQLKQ

O7-bA = target: T8, O7-bA
T8 chain: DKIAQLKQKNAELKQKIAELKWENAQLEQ

O8-bA = target: T9, O8-bA
T9 chain: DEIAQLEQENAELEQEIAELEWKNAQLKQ

O9-bA = target: T10, O9-bA
T10 chain: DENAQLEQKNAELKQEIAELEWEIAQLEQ

4H2702-bA = target: T11, 4H2702-bA
T11 chain: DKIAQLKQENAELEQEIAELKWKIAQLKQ

4H3010-bA = target: T12, 4H3010-bA
T12 chain: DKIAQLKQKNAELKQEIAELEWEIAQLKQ

4H3112-bA = target: T13, 4H3112-bA
T13 chain: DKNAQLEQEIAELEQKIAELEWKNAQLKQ

4H3427-bA = target: T14, 4H3427-bA
T14 chain: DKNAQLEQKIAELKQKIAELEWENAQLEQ

4H346-bA = target: T15, 4H346-bA
T15 chain: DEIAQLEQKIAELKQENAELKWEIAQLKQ

4H3926-bA = target: T16, 4H3926-bA
T16 chain: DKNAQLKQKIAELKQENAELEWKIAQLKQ

4H4073-bA = target: T17, 4H4073-bA
T17 chain: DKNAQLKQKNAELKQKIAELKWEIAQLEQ

4H457-bA = target: T18, 4H457-bA
T18 chain: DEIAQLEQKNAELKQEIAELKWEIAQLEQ

4H575-bA = target: T19, 4H575-bA
T19 chain: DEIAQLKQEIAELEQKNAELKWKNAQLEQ

4H683-bA = target: T20, 4H683-bA
T20 chain: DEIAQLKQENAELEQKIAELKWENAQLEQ

4H754-bA = target: T21, 4H754-bA
T21 chain: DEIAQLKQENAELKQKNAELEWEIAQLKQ

4H780-bA = target: T22, 4H780-bA
T22 chain: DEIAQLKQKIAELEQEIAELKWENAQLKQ

4H797-bA = target: T23, 4H797-bA
T23 chain: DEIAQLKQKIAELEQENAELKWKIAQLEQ

4H855-bA = target: T24, 4H855-bA
T24 chain: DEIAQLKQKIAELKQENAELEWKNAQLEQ

4H918-bA = target: T25, 4H918-bA
T25 chain: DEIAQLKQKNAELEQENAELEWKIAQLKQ

4H953-bA = target: T26, 4H953-bA
T26 chain: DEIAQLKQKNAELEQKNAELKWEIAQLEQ

4H968-bA = target: T27, 4H968-bA
T27 chain: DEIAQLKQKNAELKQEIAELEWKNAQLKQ

4H1985-bH = target: T28, 4H1985-bH
T28 chain: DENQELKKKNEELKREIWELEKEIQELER

4H3129-bH = target: T29, 4H3129-bH
T29 chain: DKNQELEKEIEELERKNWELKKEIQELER

4H3162-bH = target: T30, 4H3162-bH
T30 chain: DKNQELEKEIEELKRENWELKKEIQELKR

4H3172-bH = target: T31, 4H3172-bH
T31 chain: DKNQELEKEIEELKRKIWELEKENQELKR

4H3175-bH = target: T32, 4H3175-bH
T32 chain: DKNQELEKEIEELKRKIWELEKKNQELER

4H3277-bH = target: T33, 4H3277-bH
T33 chain: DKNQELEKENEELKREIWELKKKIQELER

4H3298-bH = target: T34, 4H3298-bH
T34 chain: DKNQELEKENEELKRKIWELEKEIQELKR

4H3414-bH = target: T35, 4H3414-bH
T35 chain: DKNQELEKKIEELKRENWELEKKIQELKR

4H3462-bH = target: T36, 4H3462-bH
T36 chain: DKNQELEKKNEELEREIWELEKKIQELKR

4H3497-bH = target: T37, 4H3497-bH
T37 chain: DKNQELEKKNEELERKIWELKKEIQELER

4H3613-bH = target: T38, 4H3613-bH
T38 chain: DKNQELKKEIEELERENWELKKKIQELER

4H3628-bH = target: T39, 4H3628-bH
T39 chain: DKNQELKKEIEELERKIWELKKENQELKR

4H3631-bH = target: T40, 4H3631-bH
T40 chain: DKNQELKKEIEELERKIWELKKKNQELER

4H3638-bH = target: T41, 4H3638-bH
T41 chain: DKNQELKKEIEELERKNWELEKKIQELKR

4H3817-bH = target: T42, 4H3817-bH
T42 chain: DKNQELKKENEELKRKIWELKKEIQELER

4H3858-bH = target: T43, 4H3858-bH
T43 chain: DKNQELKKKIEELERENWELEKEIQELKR

4H3926-bH = target: T44, 4H3926-bH
T44 chain: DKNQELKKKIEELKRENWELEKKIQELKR

4H3974-bH = target: T45, 4H3974-bH
T45 chain: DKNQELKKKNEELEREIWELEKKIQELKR

4H570-bH = target: T46, 4H570-bH
T46 chain: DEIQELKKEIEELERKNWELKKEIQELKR

4H584-bH = target: T47, 4H584-bH
T47 chain: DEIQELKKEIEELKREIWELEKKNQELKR

4H591-bH = target: T48, 4H591-bH
T48 chain: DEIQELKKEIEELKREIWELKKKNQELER

4H619-bH = target: T49, 4H619-bH
T49 chain: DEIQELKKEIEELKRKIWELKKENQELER

4H626-bH = target: T50, 4H626-bH
T50 chain: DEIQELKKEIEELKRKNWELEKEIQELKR

4H72-bH = target: T51, 4H72-bH
T51 chain: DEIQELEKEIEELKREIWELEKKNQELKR

4H850-bH = target: T52, 4H850-bH
T52 chain: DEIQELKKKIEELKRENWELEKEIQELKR

4H906-bH = target: T53, 4H906-bH
T53 chain: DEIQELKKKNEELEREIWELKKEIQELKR

4H607-bH = target: T54, 4H607-bH
T54 chain: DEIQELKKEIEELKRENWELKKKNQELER

O2 = target: T55, O2
T55 chain: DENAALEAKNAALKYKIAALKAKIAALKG

O3 = target: T56, O3
T56 chain: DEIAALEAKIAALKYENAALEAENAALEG

O4 = target: T57, O4
T57 chain: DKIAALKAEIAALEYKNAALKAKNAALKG

O5 = target: T58, O5
T58 chain: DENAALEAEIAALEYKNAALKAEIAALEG

O6 = target: T59, O6
T59 chain: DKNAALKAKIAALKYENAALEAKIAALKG

O7 = target: T60, O7
T60 chain: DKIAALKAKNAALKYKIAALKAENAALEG

O8 = target: T61, O8
T61 chain: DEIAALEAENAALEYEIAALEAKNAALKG

O9 = target: T62, O9
T62 chain: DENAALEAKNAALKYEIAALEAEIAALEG

B1: O15-bA (peptide)
chain: DEIAQLEQENAELEQKIAELKWENAQLEQ
- interaction score (O15-bA): -1.57
- interaction score (O16-bA): 2.52
- interaction score (O2-bA): -0.458
- interaction score (O3-bA): -1.21
- interaction score (O4-bA): -0.5
- interaction score (O5-bA): -0.66
- interaction score (O6-bA): -0.551
- interaction score (O7-bA): 1.63
- interaction score (O8-bA): -0.714
- interaction score (O9-bA): -0.0414

B3: O14-bA (peptide)
chain: DENAQLEQEIAELEQENAELEWKIAQLKQ
- interaction score (O15-bA): -0.126
- interaction score (O16-bA): 2.36
- interaction score (O2-bA): 0.492
- interaction score (O3-bA): -0.879
- interaction score (O4-bA): -0.146
- interaction score (O5-bA): 1.69
- interaction score (O6-bA): 2.5
- interaction score (O7-bA): 2.14
- interaction score (O8-bA): -0.111
- interaction score (O9-bA): -0.575

B6: O2 (peptide)
chain: DENAALEAKNAALKYKIAALKAKIAALKG
- interaction score (O2): -2.16
- interaction score (O3): -1.84
- interaction score (O4): -1.83
- interaction score (O5): -1.97
- interaction score (O6): -2.66
- interaction score (O7): -2.4
- interaction score (O8): -0.949
- interaction score (O9): 0.313

B7: O13-bA (peptide)
chain: DKNAQLKQKIAELKQKNAELKWEIAQLEQ
- interaction score (O15-bA): 0.435
- interaction score (O16-bA): -1.53
- interaction score (O2-bA): -1.17
- interaction score (O3-bA): -1.05
- interaction score (O4-bA): -1.31
- interaction score (O5-bA): 0.182
- interaction score (O6-bA): 1.39
- interaction score (O7-bA): -1.07
- interaction score (O8-bA): 0.83
- interaction score (O9-bA): -0.882

The next lines start with the values.

- interaction score (4H2702-bA): 1.87
- interaction score (4H3010-bA): 2.07
- interaction score (4H3112-bA): 0.438
- interaction score (4H3427-bA): 0.956
- interaction score (4H346-bA): 0.224
- interaction score (4H3926-bA): 1.22
- interaction score (4H4073-bA): 2.39
- interaction score (4H457-bA): 1.03
- interaction score (4H575-bA): -1.27
- interaction score (4H683-bA): -1.86
- interaction score (4H754-bA): -1.37
- interaction score (4H780-bA): -1.04
- interaction score (4H797-bA): -1.02
- interaction score (4H855-bA): -1.38
- interaction score (4H918-bA): -0.134
- interaction score (4H953-bA): 1.82
- interaction score (4H968-bA): 2.68
- interaction score (O15-bA): 0.113
- interaction score (O4-bA): -0.822
B2: 4H2702-bA (peptide)
chain: DKIAQLKQENAELEQEIAELKWKIAQLKQ

- interaction score (4H1985-bH): -2.13
- interaction score (4H3129-bH): -0.549
- interaction score (4H3162-bH): -1.36
- interaction score (4H3172-bH): -1.84
- interaction score (4H3175-bH): -0.853
- interaction score (4H3277-bH): -0.449
- interaction score (4H3298-bH): -0.821
- interaction score (4H3414-bH): -0.255
- interaction score (4H3462-bH): -0.482
- interaction score (4H3497-bH): -0.884
- interaction score (4H3613-bH): -1.08
- interaction score (4H3628-bH): -0.631
- interaction score (4H3631-bH): 0.015
- interaction score (4H3638-bH): -0.17
- interaction score (4H3817-bH): -0.0213
- interaction score (4H3858-bH): -1.02
- interaction score (4H3926-bH): -0.572
- interaction score (4H3974-bH): 0.0704
- interaction score (4H570-bH): -0.979
- interaction score (4H584-bH): -1.1
- interaction score (4H591-bH): -1.01
- interaction score (4H619-bH): -1.32
- interaction score (4H626-bH): -2.1
- interaction score (4H72-bH): -0.781
- interaction score (4H850-bH): -0.707
- interaction score (4H906-bH): -0.874
B4: 4H1985-bH (peptide)
chain: DENQELKKKNEELKREIWELEKEIQELER

- interaction score (4H3162-bH): 0.549
- interaction score (4H3175-bH): -1.88
- interaction score (4H3277-bH): -0.247
- interaction score (4H3298-bH): -0.633
- interaction score (4H3462-bH): -0.66
- interaction score (4H3497-bH): -0.619
- interaction score (4H3613-bH): 0.334
- interaction score (4H3628-bH): -1.68
- interaction score (4H3926-bH): 1.52
- interaction score (4H591-bH): -0.636
- interaction score (4H607-bH): -2.63
- interaction score (4H626-bH): -1.98
- interaction score (4H906-bH): -0.0502
B5: 4H3162-bH (peptide)
chain: DKNQELEKEIEELKRENWELKKEIQELKR
